Measurements reported in the supplement of paper PMC10065799, “High-throughput profiling of sequence recognition by tyrosine kinases and SH2 domains using bacterial peptide display” (eLife, 2023).

Columns and labels:
c-Abl (mouse) = assay: phosphorylation enrichment, bacterial display (enrichment ratio); higher = better substrate or ligand; peptides without Tyr show the background
c-Src = assay: as above
Hck = Hck (UniProt P08631); assay: as above
Fer (mouse) = assay: as above
FGFR1 = FGFR1 (UniProt P11362); assay: as above
FGFR3 = FGFR3 (UniProt P22607); assay: as above
Sequence of FGFR3 (P22607 whole entry, looked up): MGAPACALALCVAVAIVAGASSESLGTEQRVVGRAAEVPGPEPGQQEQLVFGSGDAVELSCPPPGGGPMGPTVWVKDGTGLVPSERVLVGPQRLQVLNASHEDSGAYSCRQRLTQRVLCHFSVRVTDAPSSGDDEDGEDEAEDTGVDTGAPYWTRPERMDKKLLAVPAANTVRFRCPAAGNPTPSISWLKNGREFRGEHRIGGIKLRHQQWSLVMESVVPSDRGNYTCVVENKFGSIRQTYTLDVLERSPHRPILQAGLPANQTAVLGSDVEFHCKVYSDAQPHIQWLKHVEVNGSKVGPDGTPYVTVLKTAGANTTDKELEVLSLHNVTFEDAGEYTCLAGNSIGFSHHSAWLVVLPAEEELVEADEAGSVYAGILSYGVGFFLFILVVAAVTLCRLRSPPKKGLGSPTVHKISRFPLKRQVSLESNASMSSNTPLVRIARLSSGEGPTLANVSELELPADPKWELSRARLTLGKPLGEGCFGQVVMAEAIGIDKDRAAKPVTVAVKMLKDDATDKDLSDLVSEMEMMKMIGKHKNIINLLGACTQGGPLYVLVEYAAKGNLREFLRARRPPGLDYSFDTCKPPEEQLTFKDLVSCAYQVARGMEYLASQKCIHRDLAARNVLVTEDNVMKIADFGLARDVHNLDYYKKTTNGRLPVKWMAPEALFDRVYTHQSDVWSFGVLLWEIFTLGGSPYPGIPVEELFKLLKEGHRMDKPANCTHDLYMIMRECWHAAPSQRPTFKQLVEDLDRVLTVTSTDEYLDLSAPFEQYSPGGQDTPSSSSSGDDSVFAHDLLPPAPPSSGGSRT

Jak2 = Jak2 (UniProt O60674); assay: as above
Fyn = Fyn (UniProt P06241); assay: as above
Sequence of Fyn (P06241 whole entry, looked up): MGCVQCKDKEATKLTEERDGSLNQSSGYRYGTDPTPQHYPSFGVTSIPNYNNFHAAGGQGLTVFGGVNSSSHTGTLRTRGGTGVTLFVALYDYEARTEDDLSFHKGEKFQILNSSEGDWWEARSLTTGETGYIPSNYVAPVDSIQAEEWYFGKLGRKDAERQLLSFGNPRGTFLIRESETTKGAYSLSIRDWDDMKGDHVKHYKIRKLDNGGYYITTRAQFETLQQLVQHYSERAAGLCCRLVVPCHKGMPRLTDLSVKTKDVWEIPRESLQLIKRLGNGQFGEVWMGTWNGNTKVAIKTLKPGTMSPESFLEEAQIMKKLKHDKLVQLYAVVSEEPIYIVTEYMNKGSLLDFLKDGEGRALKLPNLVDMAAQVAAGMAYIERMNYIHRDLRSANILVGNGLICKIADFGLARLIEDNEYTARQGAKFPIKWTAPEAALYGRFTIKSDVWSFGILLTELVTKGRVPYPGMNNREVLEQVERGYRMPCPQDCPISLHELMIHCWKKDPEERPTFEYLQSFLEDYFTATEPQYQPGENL

EPHB2 = EPHB2 (UniProt P29323); assay: as above
Sequence of EPHB2 (P29323 whole entry, looked up): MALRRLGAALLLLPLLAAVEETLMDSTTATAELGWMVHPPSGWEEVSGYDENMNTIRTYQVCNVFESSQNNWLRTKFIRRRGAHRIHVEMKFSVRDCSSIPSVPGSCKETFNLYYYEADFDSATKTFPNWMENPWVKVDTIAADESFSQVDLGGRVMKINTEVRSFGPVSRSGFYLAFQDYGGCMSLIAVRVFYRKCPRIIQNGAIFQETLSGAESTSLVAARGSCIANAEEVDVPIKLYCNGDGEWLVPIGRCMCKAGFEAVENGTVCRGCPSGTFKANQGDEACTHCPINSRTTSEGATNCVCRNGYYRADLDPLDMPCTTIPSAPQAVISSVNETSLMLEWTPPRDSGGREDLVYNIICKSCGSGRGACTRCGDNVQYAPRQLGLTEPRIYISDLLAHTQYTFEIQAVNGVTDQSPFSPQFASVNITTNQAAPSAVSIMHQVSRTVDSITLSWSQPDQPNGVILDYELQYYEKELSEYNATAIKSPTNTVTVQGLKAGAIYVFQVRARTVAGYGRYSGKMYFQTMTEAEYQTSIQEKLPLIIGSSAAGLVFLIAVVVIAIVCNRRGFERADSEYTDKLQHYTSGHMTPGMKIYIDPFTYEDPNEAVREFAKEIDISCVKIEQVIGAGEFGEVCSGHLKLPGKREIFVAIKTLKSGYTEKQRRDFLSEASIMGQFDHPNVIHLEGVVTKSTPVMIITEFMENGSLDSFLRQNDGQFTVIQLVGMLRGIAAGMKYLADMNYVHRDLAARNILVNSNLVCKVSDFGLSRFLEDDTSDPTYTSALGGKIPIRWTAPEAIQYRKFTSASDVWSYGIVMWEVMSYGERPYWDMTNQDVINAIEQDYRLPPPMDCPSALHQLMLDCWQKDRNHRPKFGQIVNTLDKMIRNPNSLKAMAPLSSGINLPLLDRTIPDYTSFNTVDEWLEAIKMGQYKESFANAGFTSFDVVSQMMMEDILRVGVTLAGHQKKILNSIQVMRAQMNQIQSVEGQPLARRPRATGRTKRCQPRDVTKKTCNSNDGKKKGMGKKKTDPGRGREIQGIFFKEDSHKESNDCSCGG

EPHB1 = EPHB1 (UniProt P54762); assay: as above
Sequence of EPHB1 (P54762 whole entry, looked up): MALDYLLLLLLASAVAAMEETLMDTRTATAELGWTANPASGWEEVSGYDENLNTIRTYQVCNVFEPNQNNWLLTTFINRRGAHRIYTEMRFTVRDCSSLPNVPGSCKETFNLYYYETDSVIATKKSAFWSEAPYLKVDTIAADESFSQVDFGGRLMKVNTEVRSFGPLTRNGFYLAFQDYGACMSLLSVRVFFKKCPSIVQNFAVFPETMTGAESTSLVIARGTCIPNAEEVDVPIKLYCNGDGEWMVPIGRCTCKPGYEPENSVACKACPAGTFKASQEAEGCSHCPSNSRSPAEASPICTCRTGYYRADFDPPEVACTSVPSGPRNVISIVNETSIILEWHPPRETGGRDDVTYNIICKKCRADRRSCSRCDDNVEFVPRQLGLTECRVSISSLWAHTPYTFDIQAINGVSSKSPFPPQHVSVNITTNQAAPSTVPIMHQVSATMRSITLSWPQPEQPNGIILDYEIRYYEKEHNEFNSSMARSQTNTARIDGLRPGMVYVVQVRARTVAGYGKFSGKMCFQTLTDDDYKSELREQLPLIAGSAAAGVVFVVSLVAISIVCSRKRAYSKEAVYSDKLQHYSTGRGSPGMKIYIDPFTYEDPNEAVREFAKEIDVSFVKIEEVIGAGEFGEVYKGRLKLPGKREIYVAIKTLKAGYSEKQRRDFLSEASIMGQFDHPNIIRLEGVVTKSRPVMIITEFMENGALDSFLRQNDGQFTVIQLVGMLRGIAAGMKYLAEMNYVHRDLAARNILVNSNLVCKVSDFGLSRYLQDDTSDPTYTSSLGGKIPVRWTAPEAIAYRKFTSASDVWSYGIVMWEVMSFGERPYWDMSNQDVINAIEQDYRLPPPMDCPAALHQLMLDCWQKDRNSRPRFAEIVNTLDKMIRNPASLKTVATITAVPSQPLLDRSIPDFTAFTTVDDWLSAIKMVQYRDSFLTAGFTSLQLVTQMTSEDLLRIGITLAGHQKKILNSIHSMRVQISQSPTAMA

Fes = Fes (UniProt P07332); assay: as above
AncSZ = assay: as above
MERTK = MERTK (UniProt Q12866); assay: as above
Sequence of MERTK (Q12866 whole entry, looked up): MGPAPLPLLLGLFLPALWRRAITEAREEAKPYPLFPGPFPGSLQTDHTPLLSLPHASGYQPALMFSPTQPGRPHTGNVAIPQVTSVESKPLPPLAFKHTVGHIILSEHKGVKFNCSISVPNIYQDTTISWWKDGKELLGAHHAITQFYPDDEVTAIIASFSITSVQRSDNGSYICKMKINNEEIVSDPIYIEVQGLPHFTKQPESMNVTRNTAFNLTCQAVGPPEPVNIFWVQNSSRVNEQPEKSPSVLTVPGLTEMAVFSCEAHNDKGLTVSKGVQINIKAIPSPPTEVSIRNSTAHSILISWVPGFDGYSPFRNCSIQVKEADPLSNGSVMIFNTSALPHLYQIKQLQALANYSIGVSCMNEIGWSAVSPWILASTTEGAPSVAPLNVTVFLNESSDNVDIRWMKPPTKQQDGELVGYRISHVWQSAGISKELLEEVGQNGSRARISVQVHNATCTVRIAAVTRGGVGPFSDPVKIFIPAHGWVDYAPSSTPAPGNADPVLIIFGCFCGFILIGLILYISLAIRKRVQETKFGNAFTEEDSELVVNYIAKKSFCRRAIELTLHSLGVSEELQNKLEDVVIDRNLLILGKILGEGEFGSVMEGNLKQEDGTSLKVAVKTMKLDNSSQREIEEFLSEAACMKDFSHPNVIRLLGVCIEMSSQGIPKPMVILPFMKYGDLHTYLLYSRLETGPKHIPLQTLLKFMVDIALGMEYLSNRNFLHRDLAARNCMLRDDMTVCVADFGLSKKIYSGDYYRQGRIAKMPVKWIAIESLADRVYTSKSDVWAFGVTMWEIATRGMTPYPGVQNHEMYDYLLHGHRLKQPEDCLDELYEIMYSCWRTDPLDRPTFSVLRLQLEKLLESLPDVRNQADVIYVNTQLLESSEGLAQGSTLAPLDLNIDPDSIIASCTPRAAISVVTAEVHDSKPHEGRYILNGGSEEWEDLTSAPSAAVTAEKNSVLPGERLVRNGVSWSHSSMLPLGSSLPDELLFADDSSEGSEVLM

SHP2-C SH2 = assay: SH2 binding enrichment of the phosphorylated peptide, bacterial display (enrichment ratio); higher = better substrate or ligand; peptides without Tyr show the background
c-Src SH2 = assay: as above
Grb2 SH2 = Grb2 SH2 (UniProt P62993); assay: as above
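Throughout, for SH2 binding enrichment of the phosphorylated peptide, bacterial display: peptide library displayed on the E. coli surface as eCPX fusions, selected cells deep-sequenced, score is each peptide's frequency after selection divided by its frequency in the input.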
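Throughout, for phosphorylation enrichment, bacterial display: 11-residue human phosphosite peptides and single-mutation variants displayed on the E. coli surface, counted by deep sequencing, each peptide's frequency after selection divided by its frequency in the unselected input library; frequency after pTyr selection over input frequency; kinase dosed for 20-30% of maximal phosphorylation in three min.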

Sequence of Hck (P08631 whole entry, looked up): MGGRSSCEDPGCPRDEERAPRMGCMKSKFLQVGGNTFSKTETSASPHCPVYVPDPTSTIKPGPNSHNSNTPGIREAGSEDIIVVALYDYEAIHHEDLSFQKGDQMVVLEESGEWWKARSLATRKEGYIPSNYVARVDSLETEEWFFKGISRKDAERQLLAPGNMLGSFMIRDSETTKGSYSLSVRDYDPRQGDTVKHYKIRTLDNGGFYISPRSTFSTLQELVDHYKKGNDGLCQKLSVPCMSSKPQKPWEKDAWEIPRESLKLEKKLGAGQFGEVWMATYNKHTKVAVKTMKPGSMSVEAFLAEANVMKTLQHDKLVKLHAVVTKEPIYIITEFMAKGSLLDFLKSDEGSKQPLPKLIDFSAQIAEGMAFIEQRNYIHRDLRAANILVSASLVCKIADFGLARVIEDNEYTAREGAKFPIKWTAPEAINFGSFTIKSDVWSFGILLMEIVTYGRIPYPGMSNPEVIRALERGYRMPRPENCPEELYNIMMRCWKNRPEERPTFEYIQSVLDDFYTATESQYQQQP

Sequence	SH2 binding enrichment (SHP2-C SH2)	SH2 binding enrichment (c-Src SH2)	SH2 binding enrichment (Grb2 SH2)	phosphorylation enrichment (c-Abl (mouse))	phosphorylation enrichment (c-Src)	phosphorylation enrichment (Hck)	phosphorylation enrichment (Fer (mouse))	phosphorylation enrichment (FGFR1)	phosphorylation enrichment (FGFR3)	phosphorylation enrichment (Jak2)	phosphorylation enrichment (Fyn)	phosphorylation enrichment (EPHB2)	phosphorylation enrichment (EPHB1)	phosphorylation enrichment (Fes)	phosphorylation enrichment (AncSZ)	phosphorylation enrichment (MERTK)
HLQQSNLPRGT [TEX45_Y396_Y396N]	0.583	0.748	0.837	0.703	0.42	0.534	0.279	0.491	0.644	0.689	0.445	0.451	0.447	0.757	0.639	0.467
WDLPEYSYKDP [ITGA3_Y237_S235P]	0.77	0.784	0.89	0.545	0.495	0.787	0.517	0.688	0.926	1.18	1.12	0.651	0.631	1.18	2.12	0.464
GHNDVYISEHV [GRIN2A_Y1423]	0.535	0.456	1.1	0.33	0.395	0.438	0.317	0.393	0.478	0.407	0.416	0.447	0.331	0.618	0.552	0.332
EQKKYYNATKK [SCN5A_Y1495_M1498T]	1.04	0.731	1.16	0.485	0.411	0.384	0.407	0.343	0.387	0.503	0.375	0.383	0.399	0.54	0.478	0.371

Further lines, with some results ahead:

SH2 binding enrichment (SHP2-C SH2)	SH2 binding enrichment (c-Src SH2)	SH2 binding enrichment (Grb2 SH2)	Sequence	phosphorylation enrichment (c-Abl (mouse))	phosphorylation enrichment (c-Src)	phosphorylation enrichment (Hck)	phosphorylation enrichment (Fer (mouse))	phosphorylation enrichment (FGFR1)	phosphorylation enrichment (FGFR3)	phosphorylation enrichment (Jak2)	phosphorylation enrichment (Fyn)	phosphorylation enrichment (EPHB2)	phosphorylation enrichment (EPHB1)	phosphorylation enrichment (Fes)	phosphorylation enrichment (AncSZ)	phosphorylation enrichment (MERTK)
0.983	0.479	0.641	LAETSYVIVLE [MAGEA1_Y276_K278I]	1.54	1	0.727	0.734	0.688	0.997	2.19	0.791	0.99	1.06	2.35	1.8	0.616
0.861	0.509	0.905	MSSLFYANTLF [HOXB7_Y6_YF]	0.693	0.883	0.905	3.42	0.656	0.735	0.859	0.905	0.834	1.14	1.19	0.906	3.91
0.751	0.529	0.734	SHLSAFPALEG [CD5_Y465_Y465F]	0.407	0.328	0.402	0.312	0.354	0.52	0.5	0.352	0.367	0.431	0.612	0.553	0.347
0.682	0.506	0.979	LEAFQYIGESQ [MSH2_Y856_E853A]	0.906	0.659	0.413	0.505	0.614	0.938	1.46	0.625	0.585	0.711	1.58	1.21	0.479
